The results in this text go back to IntAct's records for PubMed 24899623.

B1: Leukocyte immunoglobulin-like receptor subfamily B member 2 (Homo sapiens), Q8N423 (parent)
chain: MTPIVTVLICLGLSLGPRTRVQTGTIPKPTLWAEPDSVITQGSPVTLSCQGSLEAQEYRLYREKKSASWITRIRPELVKNGQFHIPSITWEHTGRYGCQYYSRARWSELSDPLVLVMTGAYPKPTLSAQPSPVVTSGGRVTLQCESQVAFGGFILCKEGEDEHPQCLNSQPHARGSSRAIFSVGPVSPNRRWSHRCYGYDLNSPYVWSSPSDLLELLVPGVSKKPSLSVQPGPVMAPGESLTLQCVSDVGYDRFVLYKEGERDLRQLPGRQPQAGLSQANFTLGPVSRSYGGQYRCYGAHNLSSECSAPSDPLDILITGQIRGTPFISVQPGPTVASGENVTLLCQSWRQFHTFLLTKAGAADAPLRLRSIHEYPKYQAEFPMSPVTSAHAGTYRCYGSLNSDPYLLSHPSEPLELVVSGPSMGSSPPPTGPISTPGPEDQPLTPTGSDPQSGLGRHLGVVIGILVAVVLLLLLLLLLFLILRHRRQGKHWTSTQRKADFQHPAGAVGPEPTDRGLQWRSSPAADAQEENLYAAVKDTQPEDGVEMDTRAAASEAPQDVTYAQLHSLTLRRKATEPPPSQEREPPAEPSIYATLAIH
partner: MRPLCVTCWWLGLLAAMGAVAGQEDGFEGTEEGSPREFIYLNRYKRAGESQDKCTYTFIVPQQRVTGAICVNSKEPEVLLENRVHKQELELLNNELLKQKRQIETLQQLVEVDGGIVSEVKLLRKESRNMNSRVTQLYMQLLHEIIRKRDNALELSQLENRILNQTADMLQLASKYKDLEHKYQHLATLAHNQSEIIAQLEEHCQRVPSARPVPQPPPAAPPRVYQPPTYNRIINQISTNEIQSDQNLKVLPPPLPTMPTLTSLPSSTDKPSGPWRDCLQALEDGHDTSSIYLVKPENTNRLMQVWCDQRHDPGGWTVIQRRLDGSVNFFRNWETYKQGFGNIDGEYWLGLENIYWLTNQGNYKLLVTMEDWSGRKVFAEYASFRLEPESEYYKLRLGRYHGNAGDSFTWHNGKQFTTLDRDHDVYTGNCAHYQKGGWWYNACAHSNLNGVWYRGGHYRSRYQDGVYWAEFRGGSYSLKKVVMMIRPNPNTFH
B2: Leukocyte immunoglobulin-like receptor subfamily B member 2 (Homo sapiens), Q8N423 (parent)
chain: B1 chain

The first test covers variants of B1. The conditions noted are these: with angl2_human ANGPTL2, Q9UKU9.
With Y96A;G392D, the “effect of a mutation on the interaction” value is on record as “disrupting interaction strength”. Regarding R95E, the “effect of a mutation on the interaction” value is listed as “decreasing interaction strength”.

Regarding Y394A, the “effect of a mutation on the interaction” value is on record as “decreasing interaction strength”. Same read-out and setting: the same measure for R59A;Y61A: “decreasing interaction strength”. On to W90A;D200A;N202A;Y205A, for which the “effect of a mutation on the interaction” value is “with no effect”.

With G392D, the “effect of a mutation on the interaction” value is “with no effect”. Still for that read-out and setting: the same measure for H92S: “with no effect”; for T93A: “increasing interaction strength”.

Consider G94D, for which the “effect of a mutation on the interaction” value is “decreasing interaction strength”. Same read-out and setting: the same measure for T393E: “with no effect”; for Y96A;T393E: “decreasing interaction strength”.

Take G97R: the “effect of a mutation on the interaction” value is given as “with no effect”. The same measure, in the same setting: the same measure for Q99R: “with no effect”; for H92S;T93A;G94D;R95E;Y96A;G97R;Q99R;Y100G: “decreasing interaction strength”; for R59A;Y61A;W90A;D200A;N202A;Y205A: “decreasing interaction strength”. On the same count and under the same terms, the same measure for Y100G: “decreasing interaction strength”. The same measure, in the same setting: the same measure for Y96A: “decreasing interaction strength”. As for Y96A;Y394A, the “effect of a mutation on the interaction” value is listed as “disrupting interaction strength”.

The variants in the next test derive from B2. Conditions: with angl5_human ANGPTL5, Q86XS5.
Sequence of angl5_human ANGPTL5, Q86XS5 (Q86XS5 whole entry): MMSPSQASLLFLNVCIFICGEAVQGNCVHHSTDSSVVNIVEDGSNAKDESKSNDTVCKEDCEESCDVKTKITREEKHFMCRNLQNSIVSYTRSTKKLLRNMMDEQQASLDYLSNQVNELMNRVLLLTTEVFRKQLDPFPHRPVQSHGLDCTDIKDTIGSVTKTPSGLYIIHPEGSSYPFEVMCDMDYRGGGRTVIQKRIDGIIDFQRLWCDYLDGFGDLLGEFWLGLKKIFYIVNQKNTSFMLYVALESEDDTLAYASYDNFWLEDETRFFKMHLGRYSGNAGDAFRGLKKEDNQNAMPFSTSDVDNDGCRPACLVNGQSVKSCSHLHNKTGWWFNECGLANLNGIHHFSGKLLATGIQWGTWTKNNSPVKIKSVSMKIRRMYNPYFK
T393E: the “effect of a mutation on the interaction” value is “decreasing interaction strength”. Consider Y96A;G392D, for which the “effect of a mutation on the interaction” value is recorded as “disrupting interaction strength”. In the case of Y96A;T393E, the “effect of a mutation on the interaction” value is reported as “disrupting interaction strength”. Still for that read-out and setting: the same measure for R59A;Y61A;W90A;D200A;N202A;Y205A: “decreasing interaction strength”; for Q99R: “decreasing interaction strength”; for G392D: “decreasing interaction strength”. Still for that read-out and setting: the same measure for Y96A;Y394A: “disrupting interaction strength”.

As for G97R, the “effect of a mutation on the interaction” value is “with no effect”. The same measure, in the same setting: the same measure for G94D: “disrupting interaction strength”; for T93A: “decreasing interaction strength”. On the same count and under the same terms, the same measure for R95E: “decreasing interaction strength”; for R59A;Y61A: “with no effect”. Same read-out and setting: the same measure for Y96A: “decreasing interaction strength”; for Y394A: “decreasing interaction strength”. W90A;D200A;N202A;Y205A: the “effect of a mutation on the interaction” value was “decreasing interaction strength”.

In the case of Y100G, the “effect of a mutation on the interaction” value is on record as “decreasing interaction strength”. In the case of H92S, the “effect of a mutation on the interaction” value was “decreasing interaction strength”.
